In article PMC10853454, “ADAM19 cleaves the PTH receptor and associates with brachydactyly type E” (Life Science Alliance, 2024):

Legend:
ADAM19 cleavage of PTHR1 = experiment: PTHR1 cleavage by ADAM19, Western blot after PNGase F de-glycosylation; type: cell-based, human; conditions: HEK-293T (text: HEK 293) cells, unmodified PTHR1 + ADAM19, 10 μM batimastat, inhibitors added 24 h, lysis 36 h after transfection, Western blot anti PTHR1 573–593
Description: HEK-293T cells were seeded onto 12-well plates and transfected with plasmids encoding human P[…], ADAM-19 using TransIT-293 (Mirus) according to the manufacturer's instructions. Protease inhibitors were added to the medium 24 h after transfection as indicated. 36 h after transfection, cells were washed with PBS and lysed in ice-cold radioimmune precipitation assay buffer (50 mM Tris-HCl, pH 7.5, 150 mM NaCl, 1% [wt/vol] Nonidet P-40, 0.1% [wt/vol] SDS, 0.5% [wt/vol] sodium deoxycholate, 5 mM EDTA) supplemented with a mix of protease inhibitors (5 μM leupeptin, 5 μM pepstatin-A, 1 mM 4-(2-aminoethyl) benzenesulfonyl fluoride). The lysates were cleared by centrifugation at 20,000g for 30 min at 4°C. For deglycosylation, lysates were incubated with 40 mM dethiothreitol and 0.5% SDS for 90 min at 25°C. Thereafter, 1 mg/ml PNGase F was added, and samples were incubated for 16 h at 4°C. Proteins were separated by 8% or 10% SDS-PAGE and transferred onto PVDF membranes ([…], #T830.1; Carl Roth). The membranes were blocked in 5% skimmed milk powder (Sigma-Aldrich) or in casein solution (Sigma-Aldrich) for 1 h at RT. […] Proteins were detected either after short incubation in Immobilon Western ECL substrate (#WBKLS0500; Millipore) on an Odyssey FC device (Li-cor Biosciences) or on an Odyssey CLx scanner (Li-cor Biosciences). […]

[1] = test system: PTHR1 (cAMP accumulation); experiment: FRET-based cAMP accumulation assay (Epac-S-H187) in U2OS cells; type: cell-based, human; conditions: 500 pM ligand
Description: For cAMP accumulation assays, U2OS cells were seeded on Poly-D- Lysine-coated 24 mm glass cover slips in 6-well plates at a density of 1.0 × 10^6 cells/well and transfected with 1–2.4 μg cDNA per cover slip using Effectene (QIAGEN) or NEON electroporation (Thermo Fisher Scientific) according to the manufacturer’s protocol. cDNA was transfected with the EPAC-S-H187 FRET-biosensor ([Klarenbeek et al, 2015]), PTHR1-wt and ADAM19 at a ratio of 1:1:2. Fluorescence microscopy experiments were performed 48 h after transfection. For single-cell FRET imaging experiments, transfected cells on coverslips were transferred to imaging chambers (Attoflur; Thermo Fisher Scientific) and washed once and maintained in FRET imaging buffer (144 mM NaCl, 5.4 mM KCl, 2 mM CaCl2 [Carl Roth GmbH & Co. KG], 1 mM MgCl 2 [AppliChem], 10 mM HEPES [Sigma-Aldrich Chemie GmbH]; pH = 7.3). For the experiment, the cells remained at RT throughout the experiment. […]
After selecting suitable cells at the microscope, regions of interest (single cells and a cell-free background region) were chosen and recording parameters were set using the Visiview 4.0 imaging software (Visitron Systems). Every 5 s, images of the donor and acceptor emission channels were recorded following donor excitation at 436 nm for 100 ms. […] After every experiment, direct YFP excitation at 505 nm (emission: 560 nm) was recorded as a unit of measurement for the expression level of the sensor.
For data analysis, raw emission intensities from CFP and YFP channels were exported and corrected for background (by subtracting the emission intensities of a cell free region) and bleed-through of the donor fluorescence into the acceptor channel ([Borner et al, 2011]). FRET ratios (CFP/FRET in %) were calculated and normalized to baseline average of 10 data points before ligand addition, set to 0% and Forskolin/3-iso-butyl-1 methylxanthine (max. cAMP response, set to 100%). […]

ADAM19 / EYFP-PTHR1 = experiment: ADAM19 shedding assay, EYFP-PTHR1 supernatant/cell fluorescence ratio; type: cell-based, human; conditions: HEK-293T cells, EYFP-PTHR1 + WT ADAM19; 100 μM ilomastat in DMEM from 1 h after transfection, 48 h (method: 47 h); EYFP fluorescence 500/539 nm; n = 5, t test
Description: For fluorescence-based shedding experiments, HEK-293T cells were seeded in six-well cell culture plates at a density of 500,000 cells per well 24 h prior to transfection. Next day, cells in each well were transfected with 0.4 μg EYFP-PTHR1 plasmid and 0.8 μg ADAM19 or empty pcDNA3 vector plasmids. For the experiments in which the different ADAM:EYFP-PTHR1 ratios were examined, cells were transfected with a constant 0.3 μg EYFP-PTHR1 construct alongside with varying amounts of ADAM19 and pcDNA constructs to maintain the total DNA amount of 1.2 μg. 1 h after transfection, cells were supplemented with DMEM or with 100 μM ilomastat dissolved in DMEM. […] 96-well plate fluorescence measurements were performed using a Biotek Neo2 multi-well plate reader. EYFP intensity was measured using high lamp power settings at an excitation wavelength of 500/18 nm. Fluorescence was detected using a monochromator set to 539/20 nm for emission and a photomultiplier tube set to 120 V gain. To calculate and quantify the ADAM19-mediated shedding of PTHR1 N-terminus, background fluorescence value obtained from pure DMEM was subtracted from fluorescence values obtained from cell culture medium (Fsupernatant) and cell suspensions (Fcell), and then the ratio of background-corrected fluorescence values was calculated: Ratio = Fsupernatant/Fcell. […]

[2] = test system: PTHR1 (β-arrestin2 recruitment); experiment: BRET β-arrestin2 recruitment to PTHR1 in SaOS cells; type: cell-based, human; conditions: SaOS (Saos2) cells; PTHR1-Nanoluc + β-arrestin2-cpVenus BRET, 37°C
Description: (§1) U2OS, Saos2 and HEK-293T cells were transfected with Gs or Gq protein BRET biosensors ([Che et al, 2010]), PTHR1 and ADAM19 at a ratio of 1:1:2. For β-arrestin2 BRET recruitment assay, PTHR1-Nanoluc was used with β-arrestin2-cpVenus and ADAM19 at a ratio of 1:1:2 ([Nemec et al, 2022]). Combinations were transfected with Effectene (QIAGEN) or NEON electroporation (Thermo Fisher Scientific) according to the manufacturer’s protocol with a total of 1–2.4 μg of cDNA. After 24 h cells were transferred into a PDL-precoated a white-wall, white-bottomed 96-well microtiter plate, at a density of 60,000 cells/well. 24 h after the reseeding, the medium was removed, and cells were washed once with PBS with 0.1% BSA and incubated with 90 μl of a 1:1,000 (vol:vol) stock solution of furimazine in PBS buffer. 5 min later, basal reads were recorded for 4 min and subsequently, 10 μl of 10-fold ligand solution or FRET buffer was applied to each well and the stimulated reads were further recorded. Measurements were performed at 37°C using a Synergy Neo2 Plate Reader with the NanoBRET filter set, integration time per data point was set to 0.3 s and gain to 110/140. Cells were excited at 510/20 nm and fluorescence emission was recorded at 560/20 nm for quantification of expression level ([Nemec et al, 2022]).

PTHR1 (Gq activation) = experiment: BRET-based Gq activation by PTHR1; type: cell-based, human
Description: as §1

[3] = test system: PTHR1 (β-arrestin2 recruitment); experiment: BRET β-arrestin2 recruitment to PTHR1 in U2OS cells; type: cell-based, human
Description: as §1

PTHR1 (Gs activation) = experiment: BRET-based Gs activation by PTHR1; type: cell-based, human; conditions: HEK-293T cells with ADAM19; Gs BRET sensor, 37°C; three independent experiments in duplicates
Description: as §1

PTH1R = conditions: ref Hattersley et al, 2016; cited from earlier work

CNC(=O)[C@H](Cc1ccccc1)NC(=O)[C@H](CC(C)C)[C@H](CSc1cccs1)C(=O)NO [batimastat]
PTHR1 species detected with ADAM19 co-expression (ADAM19 cleavage of PTHR1): only the 60 kD species of PTHR1 were detected

PTH1-34: PTHR1 ligand, BACHEM #4033364 (SVSEIQLMHNLGKHLNSMERVEWLRKKLQDVHNF; Parathyroid hormone; UniProt P01270 32-65, looked up, fragment)
increase of FRET ratio (CFP/FRET), average ([1]; U2OS cells with and without ADAM19, 0% = baseline, 100% = 10 μM Forskolin + 100 μM 3-iso-butyl-1 methylxanthine, "in both cases"): 70–80%
cAMP response ([1]; U2OS cells, PTH1R + Epac-S-H187, alone and with ADAM19, single-cell FRET, RT, pH 7.3): an increase in cAMP was detected
difference in cAMP response with vs without ADAM19 ([1]; U2OS cells, PTH1-34 n = 96 cells on 5 days (Welch t test), PTHrP n = 76 cells on 2 days (Mann-Whitney)): no significant differences

CNC(=O)[C@H](Cc1c[nH]c2ccccc12)NC(=O)[C@@H](CC(=O)NO)CC(C)C [Ilomastat (GM6001)]
inhibition of PTHR1 cleavage by ADAM19 (ADAM19 / EYFP-PTHR1): PTHR1 cleavage by ADAM19 was inhibited

B1: PTH: parathyroid hormone; PTHR1 agonist, form used in BRET assays not specified (peptide, UniProt P01270 32-115, looked up)
Parathyroid hormone: SVSEIQLMHNLGKHLNSMERVEWLRKKLQDVHNFVALGAPLAPRDAGSQRPRKKEDNVLVESHEKSLGEADKADVNVLTKAKSQ
modifications: Parathyroid hormone
notes: parathyroid hormone; PTHR1 agonist, form used in BRET assays not specified
β-arrestin2 recruitment to PTHR1, presence vs absence of ADAM19 [2]: significantly increased β-arrestin translocation to the PTHR1 when ADAM19 was present
Top of the curve (maximum efficacy), Gq, WT vs 56–63A mutant PTHR1 (PTHR1 (Gq activation); HEK293T with ADAM19, three-parameter non-linear fit, extra sum of squares F test (<0.0001), Fig 6B-E legend, panels not distinguished): significantly different
Gq-activation for WT PTHR1 compared to cleavage-protected PTHR1-56-63A mutant (PTHR1 (Gq activation); HEK-293T cells with ADAM19, Gq BRET sensor, 37°C, three independent experiments in duplicates): decreased Gq-activation
β-arrestin2 recruitment to PTHR1, presence vs absence of ADAM19 ([3]; PTHR1-Nanoluc + β-arrestin2-cpVenus BRET, 37°C, four experiments in quadruple): significantly increased β-arrestin translocation to the PTHR1 when ADAM19 was present
Top of the curve (maximum efficacy), β-arrestin2 recruitment, with vs without ADAM19 ([3]; three-parameter non-linear fit, extra sum of squares F test (<0.0001)): significantly different
Gs-activation for WT PTHR1 compared to cleavage-protected PTHR1-56-63A mutant (PTHR1 (Gs activation)): increased Gs-activation
agonist type at PTH1R (PTH1R): full agonists
